Legend:
[1] = biological target: human lymphotoxin (TNFβ) (human) (UniProt P01374); test: cell-based or functional assay
[2] = biological target: human tumor necrosis factor-α (TNFα) (human) (UniProt P01375); test: cell-based or functional assay
Sequence of human tumor necrosis factor-α (TNFα) (human) (P01375 77-233): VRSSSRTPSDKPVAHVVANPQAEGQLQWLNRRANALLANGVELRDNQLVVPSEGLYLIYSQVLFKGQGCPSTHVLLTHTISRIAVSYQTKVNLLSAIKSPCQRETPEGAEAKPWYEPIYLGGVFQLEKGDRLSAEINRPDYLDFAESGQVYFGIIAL

Sequence of human lymphotoxin (TNFβ) (human) (P01374 35-205 limits assumed): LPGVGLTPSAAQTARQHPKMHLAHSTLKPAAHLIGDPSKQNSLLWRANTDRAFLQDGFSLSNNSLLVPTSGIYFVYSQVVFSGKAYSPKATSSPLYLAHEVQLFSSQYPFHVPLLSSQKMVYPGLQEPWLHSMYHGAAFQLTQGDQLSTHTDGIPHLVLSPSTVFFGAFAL

Row | Molecule | concentration to half-inhibit human TNFβ at 2 pM (WEHI 164 cytotoxicity) [1] | IL-6 secreted by FS-4 fibroblasts, TNF 0.3 ng/ml, 4 µg/ml antibody [2] | IL-6 secreted by FS-4 fibroblasts, TNF 1.5 ng/ml, 4 µg/ml antibody [2] | IL-6 secreted by FS-4 fibroblasts, TNF 7.5 ng/ml, 4 µg/ml antibody [2]
1 | p75P-sf2 fusion protein (from UniProt P20333 23-204) (Fc fusion) | 31 pM | – | – | –
2 | chimeric mouse/human IgG1 anti-platelet mAb (7E3) (antibody, INN chains, looked up, V domains shown, chimeric IgG1) VH: EVQLQQSGTVLARPGASVKMSCEASGYTFTNYWMHWVKQRPGQGLEWIGAIYPGNSDTSYIQKFKGKAKLTAVTSTTSVYMELSSLTNEDSAVYYCTLYDGYYVFAYWGQGTLVTVSA VL: EIVLTQSPVTLSVTPGDSVSLSCRASRDISNNLHWFQQTSHESPRLLIKYASQSMSGIPSRFSGSGSGTDFTLSINSVETEDFGMYFCQQTNSWPYTFGGGTKLEIK | – | 1.6 ng/mL | 1.96 ng/mL | 2.16 ng/mL
